Measurements taken from patent publication US10941182 (Amgen, dated 2021).
Starred links: 1 amine or outer side, 2 acyl side, 3 side chain; linkers in the order of their positions; H or OH if unused. Non-standard residues stand in square brackets, D forms with d. Primed or numbered codes have the meaning given here. *: point of attachment. dBip = N[C@H](Cc1ccc(-c2ccccc2)cc1)C(=O)O; Oic = O=C(O)[C@@H]1C[C@@H]2CCCC[C@@H]2N1; Phe(4-Cl) = N[C@@H](Cc1ccc(Cl)cc1)C(=O)O; dPhe(4-Cl) = N[C@H](Cc1ccc(Cl)cc1)C(=O)O; Heptadecanoyl = CCCCCCCCCCCCCCCCC(=O)*; Phe(4-I) = N[C@@H](Cc1ccc(I)cc1)C(=O)O; γGlu = O=C(O)[C@H](CCC(=O)[*:2])N[*:1]; NMeR = CN[C@@H](CCCNC(=N)N)C(=O)O; Tridecanoyl = CCCCCCCCCCCCC(=O)*; hArg = N=C(N)NCCCC[C@H](N)C(=O)O; Cha = N[C@@H](CC1CCCCC1)C(=O)O; NMeL = CN[C@@H](CC(C)C)C(=O)O; Nle = CCCC[C@H](N)C(=O)O; Pip′ = not defined here; AEEA = NCCOCCOCC(=O)O

T1: rat APJ receptor (rat, UniProt Q9JHG3 1-377)
T1 sequence (looked up): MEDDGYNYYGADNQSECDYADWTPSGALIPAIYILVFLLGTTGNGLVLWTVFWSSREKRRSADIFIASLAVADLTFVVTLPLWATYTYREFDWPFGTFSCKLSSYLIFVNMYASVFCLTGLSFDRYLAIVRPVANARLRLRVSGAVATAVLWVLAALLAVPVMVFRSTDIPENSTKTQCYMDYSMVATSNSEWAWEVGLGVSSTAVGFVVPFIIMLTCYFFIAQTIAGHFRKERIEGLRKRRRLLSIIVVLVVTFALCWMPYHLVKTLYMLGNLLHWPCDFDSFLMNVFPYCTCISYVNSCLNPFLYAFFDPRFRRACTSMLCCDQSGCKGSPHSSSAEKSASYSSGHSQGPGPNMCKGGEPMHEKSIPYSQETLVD

T2: human APJ receptor (human, UniProt P35414 1-380)
T2 sequence (looked up): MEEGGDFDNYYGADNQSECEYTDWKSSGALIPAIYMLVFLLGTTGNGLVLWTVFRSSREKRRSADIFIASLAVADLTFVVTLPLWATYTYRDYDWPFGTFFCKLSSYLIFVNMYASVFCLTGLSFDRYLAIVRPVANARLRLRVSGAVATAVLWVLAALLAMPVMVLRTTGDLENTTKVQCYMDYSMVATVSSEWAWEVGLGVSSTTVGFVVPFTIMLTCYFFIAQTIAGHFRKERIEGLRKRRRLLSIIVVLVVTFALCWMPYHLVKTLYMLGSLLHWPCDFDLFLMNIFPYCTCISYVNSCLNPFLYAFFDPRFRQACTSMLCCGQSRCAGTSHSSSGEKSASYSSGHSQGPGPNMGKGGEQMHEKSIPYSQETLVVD


Experiments:
[1] = biological target: T1, rat APJ receptor; assay: cell-based or functional assay
[2] = biological target: T2, human APJ receptor; assay: cell-based or functional assay

Row | EC50 Rat APJ Receptor [1] [µM] | EC50 Human APJ Receptor [2] [nM] | Binder
1 | 0.0125 | 6.05 | Heptadecanoyl-[γGlu][AEEA][AEEA]Q[dR]P[NMeR][Cha]SHKG[Oic][Nle][Pip′][Phe(4-Cl)]-OH [apelin polypeptide SEQ ID NO: 234]
2 | 0.00791 | 0.484 | Tridecanoyl-[γGlu][AEEA][AEEA]Q[hArg]P[dR][Cha]SHKG[Oic][Nle]P[Phe(4-Cl)]-OH (SMILES CCCCCCCCCCCCC(=O)N[C@@H](CCC(=O)NCCOCCOCC(=O)NCCOCCOCC(=O)N[C@@H](CCC(N)=O)C(=O)N[C@@H](CCCCNC(=N)N)C(=O)N1CCC[C@H]1C(=O)N[C@H](CCCNC(=N)N)C(=O)N[C@@H](CC1CCCCC1)C(=O)N[C@@H](CO)C(=O)N[C@@H](Cc1c[nH]cn1)C(=O)N[C@@H](CCCCN)C(=O)NCC(=O)N1[C@H](C(=O)N[C@@H](CCCC)C(=O)N2CCC[C@H]2C(=O)N[C@@H](Cc2ccc(Cl)cc2)C(=O)O)C[C@@H]2CCCC[C@@H]21)C(=O)O) [apelin polypeptide SEQ ID NO: 228]
3 | 0.091 | 20.8 | Tridecanoyl-[γGlu][AEEA][AEEA]Q[hArg]P[dR][NMeL]SHKG[Oic][Phe(4-I)]P[Phe(4-Cl)]-OH (SMILES CCCCCCCCCCCCC(=O)N[C@@H](CCC(=O)NCCOCCOCC(=O)NCCOCCOCC(=O)N[C@@H](CCC(N)=O)C(=O)N[C@@H](CCCCNC(=N)N)C(=O)N1CCC[C@H]1C(=O)N[C@H](CCCNC(=N)N)C(=O)N(C)[C@@H](CC(C)C)C(=O)N[C@@H](CO)C(=O)N[C@@H](Cc1c[nH]cn1)C(=O)N[C@@H](CCCCN)C(=O)NCC(=O)N1[C@H](C(=O)N[C@@H](Cc2ccc(I)cc2)C(=O)N2CCC[C@H]2C(=O)N[C@@H](Cc2ccc(Cl)cc2)C(=O)O)C[C@@H]2CCCC[C@@H]21)C(=O)O) [apelin polypeptide SEQ ID NO: 226]
4 | 0.102 | 28.2 | Tridecanoyl-[γGlu][AEEA][AEEA]QRP[dR][Cha]SHKG[Oic][Phe(4-I)]P[dBip]-OH (SMILES CCCCCCCCCCCCC(=O)N[C@@H](CCC(=O)NCCOCCOCC(=O)NCCOCCOCC(=O)N[C@@H](CCC(N)=O)C(=O)N[C@@H](CCCNC(=N)N)C(=O)N1CCC[C@H]1C(=O)N[C@H](CCCNC(=N)N)C(=O)N[C@@H](CC1CCCCC1)C(=O)N[C@@H](CO)C(=O)N[C@@H](Cc1c[nH]cn1)C(=O)N[C@@H](CCCCN)C(=O)NCC(=O)N1[C@H](C(=O)N[C@@H](Cc2ccc(I)cc2)C(=O)N2CCC[C@H]2C(=O)N[C@H](Cc2ccc(-c3ccccc3)cc2)C(=O)O)C[C@@H]2CCCC[C@@H]21)C(=O)O) [apelin polypeptide SEQ ID NO: 224]
5 | 0.00329 | 0.235 | Tridecanoyl-[γGlu][AEEA][AEEA][hArg]Q[dR]P[NMeR][Cha]SHKG[Oic][Nle]P[Phe(4-Cl)]-OH (SMILES CCCCCCCCCCCCC(=O)N[C@@H](CCC(=O)NCCOCCOCC(=O)NCCOCCOCC(=O)N[C@@H](CCCCNC(=N)N)C(=O)N[C@@H](CCC(N)=O)C(=O)N[C@H](CCCNC(=N)N)C(=O)N1CCC[C@H]1C(=O)N(C)[C@@H](CCCNC(=N)N)C(=O)N[C@@H](CC1CCCCC1)C(=O)N[C@@H](CO)C(=O)N[C@@H](Cc1c[nH]cn1)C(=O)N[C@@H](CCCCN)C(=O)NCC(=O)N1[C@H](C(=O)N[C@@H](CCCC)C(=O)N2CCC[C@H]2C(=O)N[C@@H](Cc2ccc(Cl)cc2)C(=O)O)C[C@@H]2CCCC[C@@H]21)C(=O)O) [apelin polypeptide SEQ ID NO: 229]
6 | 0.00489 | 4.96 | Heptadecanoyl-[γGlu][AEEA][AEEA][dQ][hArg]P[NMeR][Cha]SHKG[Oic][Nle]P[dPhe(4-Cl)]-OH (SMILES CCCCCCCCCCCCCCCCC(=O)N[C@@H](CCC(=O)NCCOCCOCC(=O)NCCOCCOCC(=O)N[C@H](CCC(N)=O)C(=O)N[C@@H](CCCCNC(=N)N)C(=O)N1CCC[C@H]1C(=O)N(C)[C@@H](CCCNC(=N)N)C(=O)N[C@@H](CC1CCCCC1)C(=O)N[C@@H](CO)C(=O)N[C@@H](Cc1c[nH]cn1)C(=O)N[C@@H](CCCCN)C(=O)NCC(=O)N1[C@H](C(=O)N[C@@H](CCCC)C(=O)N2CCC[C@H]2C(=O)N[C@H](Cc2ccc(Cl)cc2)C(=O)O)C[C@@H]2CCCC[C@@H]21)C(=O)O) [apelin polypeptide SEQ ID NO: 237]
7 | 0.0975 | 8.77 | Tridecanoyl-[γGlu][AEEA][AEEA]Q[hArg]P[dR][NMeL]SHKG[Oic][Nle]P[dBip]-OH (SMILES CCCCCCCCCCCCC(=O)N[C@@H](CCC(=O)NCCOCCOCC(=O)NCCOCCOCC(=O)N[C@@H](CCC(N)=O)C(=O)N[C@@H](CCCCNC(=N)N)C(=O)N1CCC[C@H]1C(=O)N[C@H](CCCNC(=N)N)C(=O)N(C)[C@@H](CC(C)C)C(=O)N[C@@H](CO)C(=O)N[C@@H](Cc1c[nH]cn1)C(=O)N[C@@H](CCCCN)C(=O)NCC(=O)N1[C@H](C(=O)N[C@@H](CCCC)C(=O)N2CCC[C@H]2C(=O)N[C@H](Cc2ccc(-c3ccccc3)cc2)C(=O)O)C[C@@H]2CCCC[C@@H]21)C(=O)O) [apelin polypeptide SEQ ID NO: 227]
8 | 0.000523 | 0.468 | Ac-[dR][hArg]Q[hArg]P[dR][NMeL]SHKG[Oic][Phe(4-I)]P[dBip]-OH [apelin polypeptide SEQ ID NO: 18]
9 | 0.0479 | 3.02 | Tridecanoyl-[γGlu][AEEA][AEEA]Q[hArg]P[dR][NMeL]SHKG[Oic][Nle]P[Phe(4-Cl)]-OH (SMILES CCCCCCCCCCCCC(=O)N[C@@H](CCC(=O)NCCOCCOCC(=O)NCCOCCOCC(=O)N[C@@H](CCC(N)=O)C(=O)N[C@@H](CCCCNC(=N)N)C(=O)N1CCC[C@H]1C(=O)N[C@H](CCCNC(=N)N)C(=O)N(C)[C@@H](CC(C)C)C(=O)N[C@@H](CO)C(=O)N[C@@H](Cc1c[nH]cn1)C(=O)N[C@@H](CCCCN)C(=O)NCC(=O)N1[C@H](C(=O)N[C@@H](CCCC)C(=O)N2CCC[C@H]2C(=O)N[C@@H](Cc2ccc(Cl)cc2)C(=O)O)C[C@@H]2CCCC[C@@H]21)C(=O)O) [apelin polypeptide SEQ ID NO: 225]
10 | 0.0528 | 11.3 | Tridecanoyl-[γGlu][AEEA][AEEA]QRP[hArg][Cha]SHKG[Oic][Phe(4-I)]P[dBip]-OH (SMILES CCCCCCCCCCCCC(=O)N[C@@H](CCC(=O)NCCOCCOCC(=O)NCCOCCOCC(=O)N[C@@H](CCC(N)=O)C(=O)N[C@@H](CCCNC(=N)N)C(=O)N1CCC[C@H]1C(=O)N[C@@H](CCCCNC(=N)N)C(=O)N[C@@H](CC1CCCCC1)C(=O)N[C@@H](CO)C(=O)N[C@@H](Cc1c[nH]cn1)C(=O)N[C@@H](CCCCN)C(=O)NCC(=O)N1[C@H](C(=O)N[C@@H](Cc2ccc(I)cc2)C(=O)N2CCC[C@H]2C(=O)N[C@H](Cc2ccc(-c3ccccc3)cc2)C(=O)O)C[C@@H]2CCCC[C@@H]21)C(=O)O) [apelin polypeptide SEQ ID NO: 223]
